Drawing on paper PMC2766422, this text covers binding result, binding signal and Kd for eight molecules.

Data set [1] has as its target T1, PTB1 (human, UniProt P26599-1 1-531). Put plainly: EMSA.
For data set [2], the target named is T2, PTB1:12 (RRM1-RRM2) (human, UniProt P26599-1 1-301). The experiment in a line: EMSA. On the technique in general: A gel shift assay detects complexes by their altered migration in electrophoresis.
Data set [3] deals with T3, PTB1:34 (RRM3-RRM4) (human, UniProt P26599-1 334-531). Put plainly: EMSA.
Data set [4] deals with T2, PTB1:12 (RRM1-RRM2). Put plainly: EMSA. This is another data set of the same source.
The target in another data set is PTB1/W1 (human, UniProt P26599-1 1-531, F98W). Put plainly: EMSA.
The target of data set [5] is T4, PTB1/W4 (human, UniProt P26599-1 1-531, F487W). Put plainly: EMSA.
The target in data set [6] is T5, PTB1/W3 (human, UniProt P26599-1 1-531, F371W). The experiment in a line: EMSA.
In data set [7] the target is T1, PTB1. The experiment in a line: EMSA. The source holds these as a separate data set.
Data set [8] has as its target T3, PTB1:34 (RRM3-RRM4). Put plainly: EMSA. The source holds these as a separate data set.
The target of data set [9] is T3, PTB1:34 (RRM3-RRM4). The experiment in a line: EMSA. This is another data set of the same source.
Data set [10] concerns the target T1, PTB1. Put plainly: EMSA. This is another data set of the same source.
Data set [11] has as its target T2, PTB1:12 (RRM1-RRM2). Put plainly: EMSA. This is another data set of the same source.
Data set [12] addresses T1, PTB1. The experiment in a line: EMSA. The source holds these as a separate data set.
Data set [13] concerns the target T4, PTB1/W4. The experiment in a line: Trp fluorescence quenching.
The target of data set [14] is T5, PTB1/W3. Put plainly: Trp fluorescence quenching.
Data set [15] addresses T1, PTB1. The experiment in a line: filter binding.
Data set [16] deals with T1, PTB1. The experiment in a line: EMSA. The source holds these as a separate data set.
Data set [17] deals with T1, PTB1. The experiment in a line: EMSA. This is another data set of the same source.

Like-named read-outs stand apart in the source and are kept apart here.

On to GGGUCACGGCUAGCUGUGAAAGGUCCGUGAG (structured_RNA) [HCV X SL2], for which the binding result in the data set with PTB1 [1] is “no binding”.
Take GGGCUUCUUCGGAUGUUUUCCUUCAAG (structured_RNA) [GABAA gamma2 exon 4 RNA]: the binding result with PTB1:12 (RRM1-RRM2) [2], with PTB1:34 (RRM3-RRM4) [3] and with PTB1 [1] was “no binding” throughout.
On to GGGACUACGCAAUUCUCUUUUCUGUCUACAAAUCCAAAG (ssRNA) [GABA RNA11], for which, in the data set with PTB1:12 (RRM1-RRM2) [4], the binding result was “no binding”. In addition, the binding signal with PTB1/W1, in the data set with PTB1/W4 [5] and with PTB1/W3 [6] was ~2 fold lower affinity than PTB1 in each case. The Kd (usually a measure of binding affinity in units of concentration) in the data set with PTB1 [7] is 15 ± 2 nM; in the data set with PTB1:34 (RRM3-RRM4) [8], 50 ± 3 nM.

B1: c-src 3' end RNA (structured_RNA)
RNA: GGGAUCGCUUCGCUGAGGCUGGGGGCUGCUCUCUGCAUGUGCUUCCUCCACCGCCCCUGUGUGUUUCCAGCUCUCUCCCCGUCCCUUUAGCUUACCCUGCAUCCCACCUGUAUGAGCCGUACCC
For the molecule B1, the binding result with PTB1:34 (RRM3-RRM4) [9] and with PTB1 [10] was “binds” throughout.
For GGGAUCGGUGCCAUCGAUGUCAGGUGUGUACCCCUUAGGAGG (structured_RNA) [c-src exon N1 RNA], the binding result with PTB1:12 (RRM1-RRM2) [2], with PTB1:34 (RRM3-RRM4) [3] and with PTB1 [1] was “no binding” throughout.
With GGAGACUUGGUGGCUCCAUCUUAGCCCUA (structured_RNA) [HCV X SL3], the equilibrium dissociation constant (Kd) with PTB1:12 (RRM1-RRM2) [11] amounted to 1600 ± 600 nM; with PTB1 [12] it was 285 ± 120 nM; with PTB1 [15], 410 ± 30 nM. For the same molecule, the binding result with PTB1/W4 [13] and with PTB1/W3 [14] was “binds” in each case.
Take GGAUCCUUCUCUCUGCUUCUCUCUCGCUGGCCCUUAGGAGG (structured_RNA) [c-src 5' SL (39-mer)]: the dissociation constant Kd with PTB1 [16] was 45 ± 2 nM.

B2: c-src 5' SL + N1 (78-mer, RNA78) (structured_RNA)
RNA: GGCAACCCUCUCCUUCUCUCUGCUUCUCUCUCGCUGGCCCUUAGGAGGAAGGUGCCAUCGAUGUCAGGUGUGUACCGAGG
Regarding B2, in the data set with PTB1 [17], binding was characterised by a dissociation constant (Kd) of 80 ± 2 nM.
